Results taken from patent US5605671.

Assays:
[1] = biological target: Interleukin-8 receptor molecules on purified human neutrophils
[2] = biological target: Interleukin-8 receptor molecules on purified human neutrophils; assay: radioligand binding to purified human neutrophils, with and without 1000-fold molar excess of nonlabeled IL-8
[3] = biological target: Interleukin-8 receptor molecules on purified human neutrophils; assay: saturation binding of radioligand to purified human neutrophils, analysis of binding curves

I-125-labeled human recombinant interleukin-8 (ligand)
neutrophil chemotaxis in a Boyden chamber [1]: > 95% | specific binding as share of total binding [2]: > 90% | Kd [3]: 0.83 nM | estimated maximum binding sites per cell (binding sites per cell) [3]: 60000
